From paper PMC5880071, “Self-sustained enzymatic cascade for the production of 2,5-furandicarboxylic acid from 5-methoxymethylfurfural” (Biotechnology for Biofuels, 2018)

Key:
[1] = target: T1, UPO (unspecific peroxygenase), PaDa-I variant (Cyclocybe aegerita, UniProt B9W4V6, V100A/L110F/V118I/I291V/F354L); assay: GC-MS product analysis (FFCA formed); assay type: biochemical; details: 1.5 mM MMFA, 5 µM UPO, 1.5 mM H2O2; ether cleavage
T1 construct: gene APO1

purified protein [2] = substrate: O=Cc1ccc(C=O)o1; assay: purified protein; details: O2 co-substrate (air), sodium phosphate pH 7.0 (50 mM in Table 1, 100 mM in Methods), 25 °C
purified protein [3] = substrate: COCc1ccc(C=O)o1; assay: purified protein; assay type: biochemical, Pleurotus eryngii; details: O2 co-substrate (air), sodium phosphate pH 7.0 (50 mM in Table 1, 100 mM in Methods), 25 °C
purified protein [4] = substrate: O=Cc1ccc(CO)o1; assay: purified protein; assay type: biochemical, Pleurotus eryngii; details: O2 co-substrate (air), sodium phosphate pH 7.0 (50 mM in Table 1, 100 mM in Methods), 25 °C

T1 sequence (B9W4V6 44-371 V100A/L110F/V118I/I291V/F354L): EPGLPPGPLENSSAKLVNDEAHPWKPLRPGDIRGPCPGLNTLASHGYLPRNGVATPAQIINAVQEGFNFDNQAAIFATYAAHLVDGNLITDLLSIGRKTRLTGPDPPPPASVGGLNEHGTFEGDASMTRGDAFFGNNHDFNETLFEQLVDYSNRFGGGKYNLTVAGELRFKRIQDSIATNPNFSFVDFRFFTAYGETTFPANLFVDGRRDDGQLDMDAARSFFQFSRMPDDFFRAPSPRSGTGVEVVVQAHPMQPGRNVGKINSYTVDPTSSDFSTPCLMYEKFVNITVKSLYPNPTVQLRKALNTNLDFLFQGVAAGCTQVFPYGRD

With COCc1ccc(C(=O)O)o1 [MMFA, 5-(Methoxymethyl)-2-furancarboxylic acid] the “GC-MS product analysis (FFCA formed)” value [1] was “UPO is indeed capable to cleave the ether bond of MMFA”.

B1: AAO (aryl-alcohol oxidase) (Pleurotus eryngii) (protein)
chain: ADFDYVVVGAGNAGNVVAARLTEDPDVSVLVLEAGVSDENVLGAEAPLLAPGLVPNSIFDWNYTTTAQAGYNGRSIAYPRGRMLGGSSSVHYMVMMRGSTEDFDRYAAVTGDEGWNWDNIQQFVRKNEMVVPPADNHNTSGEFIPAVHGTNGSVSISLPGFPTPLDDRVLATTQEQSEEFFFNPDMGTGHPLGISWSIASVGNGQRSSSSTAYLRPAQSRPNLSVLINAQVTKLVNSGTTNGLPAFRCVEYAEQEGAPTTTVCAKKEVVLSAGSVGTPILLQLSGIGDENDLSSVGIDTIVNNPSVGRNLSDHLLLPAAFFVNSNQTFDNIFRDSSEFNVDLDQWTNTRTGPLTALIANHLAWLRLPSNSSIFQTFPDPAAGPNSAHWETIFSNQWFHPAIPRPDTGSFMSVTNALISPVARGDIKLATSNPFDKPLINPQYLSTEFDIFTMIQAVKSNLRFLSGQAWADFVIRPFDPRLRDPTDDAAIESYIRDNANTIFHPVGTASMSPRGASWGVVDPDLKVKGVDGLRIVDGSILPFAPNAHTQGPIYLVGKQGADLIKADQ
In the case of B1, the Km (purified protein [2]) is reported as 3.3 ± 0.2 mM, the kcat (purified protein [2]) is reported as 0.523 s⁻¹ and the kcat/Km (purified protein [2]) is reported as 157 M⁻¹ s⁻¹. For the same molecule, the Km (purified protein [3]) was 60.8 ± 5.5 mM, the kcat (purified protein [3]) was 0.263 ± 0.01 s⁻¹ and the kcat/Km (purified protein [3]) was 5.83 ± 0.333 M⁻¹ s⁻¹. It also gave a Km (purified protein [4]) of 1.6 ± 0.2 mM, a kcat (purified protein [4]) of 0.335 ± 0.01 s⁻¹ and a kcat/Km (purified protein [4]) of 215 ± 20 M⁻¹ s⁻¹.
